Measured values taken from patent US20260337278 (published 2026).

Experiments:
EGFRvIII = EGFRvIII (human, UniProt P00533); assay: BLI
[1] = target: EGFR (wild-type, His-tagged or biotinylated) (human, UniProt P00533); assay: BLI

Binder	Kd (EGFRvIII) [nM]	Kd [1] [nM]
SI-95X63 (antibody) chain 1: not shown chain 2: DILMTQSPSSMSVSLGDTVSITCHSSQDINSNIGWLQQRPGKSFKGLIYHGTNLDDEVPSRFSGSGSGADYSLTISSLESEDFADYYCVQYAQFPWTFGGGTKLEIKRTVAAPSVFIFPPSDEQLKSGTASVVCLLNNFYPREAKVQWKVDNALQSGNSQESVTEQDSKDSTYSLSSTLTLSKADYEKHKVYACEVTHQGLSSPVTKSFNRGEC	0.493	0.497
SI-95X68 (antibody) chain 1: not shown chain 2: DILMTQSPSSMSVSLGDTVSITCHSSQDINSNIGWLQQRPGKSFKGLIYHGTNLDDEVPSRFSGSGSGADYSLTISSLESEDFADYYCVQYAQFPWTFGGGTKLEIKRTVAAPSVFIFPPSDEQLKSGTASVVCLLNNFYPREAKVQWKVDNALQSGNSQESVTEQDSKDSTYSLSSTLTLSKADYEKHKVYACEVTHQGLSSPVTKSFNRGEC	0.865	1.87
SI-95X64 (antibody) chain 1: not shown chain 2: DILMTQSPSSMSVSLGDTVSITCHSSQDINSNIGWLQQRPGKSFKGLIYHGTNLDDEVPSRFSGSGSGADYSLTISSLESEDFADYYCVQYAQFPWTFGGGTKLEIKRTVAAPSVFIFPPSDEQLKSGTASVVCLLNNFYPREAKVQWKVDNALQSGNSQESVTEQDSKDSTYSLSSTLTLSKADYEKHKVYACEVTHQGLSSPVTKSFNRGEC	0.638	2.31
SI-95X51 (antibody) chain 1: not shown chain 2: DIVMTQSPSSVSLSLGDRVTITCHSSQDINSNIGWLQQKPGKAFKGLIYHGTNLDDGVPSRFSGSGSGADYTLTISSLQAEDFATYYCVQYAQFPWTFGPGTKLEIKRTVAAPSVFIFPPSDEQLKSGTASVVCLLNNFYPREAKVQWKVDNALQSGNSQESVTEQDSKDSTYSLSSTLTLSKADYEKHKVYACEVTHQGLSSPVTKSFNRGEC	1.16	1.81
SI-95X45 (antibody) chain 1: not shown chain 2: EIVLTQSPSTLSVSPGERATFSCRASQSIGTNIHWYQQKPGKPPRLLIKYASESISGIPDRFSGSGSGTEFTLTISSVQSEDFAVYYCQQNNNWPTTFGPGTKLTVLRTVAAPSVFIFPPSDEQLKSGTASVVCLLNNFYPREAKVQWKVDNALQSGNSQESVTEQDSKDSTYSLSSTLTLSKADYEKHKVYACEVTHQGLSSPVTKSFNRGEC	1.11	4.61

Now those with a lower Kd (EGFRvIII), led by results:

Kd (EGFRvIII) [nM]	Kd [1] [nM]	Binder
0.466	1.81	SI-95X44 (antibody) chain 1: not shown chain 2: DILMTQSPSSMSVSLGDTVSITCHSSQDINSNIGWLQQRPGKSFKGLIYHGTNLDDEVPSRFSGSGSGADYSLTISSLESEDFADYYCVQYAQFPWTFGGGTKLEIKRTVAAPSVFIFPPSDEQLKSGTASVVCLLNNFYPREAKVQWKVDNALQSGNSQESVTEQDSKDSTYSLSSTLTLSKADYEKHKVYACEVTHQGLSSPVTKSFNRGEC
0.358	7.3	SI-95X46 (antibody) chain 1: not shown chain 2: EIVLTQSPSTLSVSPGERATFSCRASQSIGTNIHWYQQKPGKPPRLLIKYASESISGIPDRFSGSGSGTEFTLTISSVQSEDFAVYYCQQNNNWPTTFGPGTKLTVLRTVAAPSVFIFPPSDEQLKSGTASVVCLLNNFYPREAKVQWKVDNALQSGNSQESVTEQDSKDSTYSLSSTLTLSKADYEKHKVYACEVTHQGLSSPVTKSFNRGEC
0.291	17.6	SI-95X49 (antibody) chain 1: not shown chain 2: EIVLTQSPSTLSVSPGERATFSCRASQSIGTNIHWYQQKPGKPPRLLIKYASESISGIPDRFSGSGSGTEFTLTISSVQSEDFAVYYCQQNFNWPTTFGPGTKLTVLRTVAAPSVFIFPPSDEQLKSGTASVVCLLNNFYPREAKVQWKVDNALQSGNSQESVTEQDSKDSTYSLSSTLTLSKADYEKHKVYACEVTHQGLSSPVTKSFNRGEC
